Laboratory results: US20150086555A1

Columns and labels:
Details in all cases: remark: other sources report otherwise
[1] = target: T1, recombinant soluble homotrimeric HA of A/Indonesia/5/05 (H5N1) (Influenza A virus A/Indonesia/5/2005(H5N1)); assay: HA microarray, BCC supernatant
[2] = target: T2, recombinant soluble homotrimeric HA of A/Japan/305/57 (H2N2) (Influenza A virus A/Japan/305/1957(H2N2)); assay: HA microarray, BCC supernatant
[3] = target: T3, recombinant soluble homotrimeric HA of A/chicken/Vietnam/NCVD-016/08 (H5N1) (Influenza A virus A/chicken/Vietnam/NCVD-016/2008(H5N1)); assay: HA microarray, BCC supernatant
[4] = target: recombinant soluble homotrimeric HA of A/Anhui/1/05 (H5N1) (Influenza A virus A/Anhui/1/2005(H5N1)); assay: HA microarray, BCC supernatant
[5] = target: T4, recombinant soluble homotrimeric HA of A/Netherlands/219/03 (H7N7) (Influenza A virus A/Netherlands/219/03(H7N7)); assay: HA microarray, BCC supernatant
[6] = target: recombinant soluble homotrimeric HA of A/Hong Kong/2108/03 (H9N2) (Influenza A virus A/HK/2108/2003(H9N2)); assay: HA microarray, BCC supernatant
[7] = target: recombinant soluble homotrimeric HA of A/northern shoveler/California/HKWF115/07 (H6) (Influenza A virus A/northern shoveler/California/HKWF115/2007(H6N1)); assay: HA microarray, BCC supernatant
[8] = target: T5, recombinant soluble homotrimeric HA of A/swine/Ontario/01911-2/99 (H4N6) (Influenza A virus A/Swine/Ontario/01911-2/99 (H4N6)); assay: HA microarray, BCC supernatant
[9] = target: T6, recombinant soluble homotrimeric HA of A/duck/Yangzhou/02/05 (H8N4) (Influenza A virus A/duck/Yangzhou/02/2005(H8N4)); assay: HA microarray, BCC supernatant
[10] = target: T7, recombinant soluble homotrimeric HA of A/California/4/09 (H1N1) (Influenza A virus A/California/04/2009(H1N1)); assay: HA microarray, BCC supernatant
[11] = target: T8, recombinant soluble homotrimeric HA of A/Egypt/3300-NAMRU3/08 (H5N1) (Influenza A virus A/Egypt/3300-NAMRU3/2008(H5N1)); assay: HA microarray, BCC supernatant
[12] = target: T9, recombinant soluble homotrimeric HA of A/Wisconsin/67/05 (H3N2) (Influenza A virus A/Wisconsin/67/2005(H3N2)); assay: HA microarray, BCC supernatant
[13] = target: T10, recombinant soluble homotrimeric HA of A/Vietnam/1203/04 (H5N1) (Influenza A virus A/VietNam/1203/2004(H5N1)); assay: HA microarray, BCC supernatant
[14] = target: T1, recombinant soluble homotrimeric HA of …; assay: trimeric HA microarray, transfection supernatant set 5
[15] = target: T2, recombinant soluble homotrimeric HA of …; assay: as above
[16] = target: T3, recombinant soluble homotrimeric HA of …; assay: as above
[17] = target: recombinant soluble homotrimeric HA of A/Hong Kong/156/97 (H5N1) (Influenza A virus A/Hong Kong/156/97 (H5N1)); assay: as above
[18] = target: T4, recombinant soluble homotrimeric HA of …; assay: as above
[19] = target: T5, recombinant soluble homotrimeric HA of …; assay: as above
[20] = target: recombinant soluble homotrimeric HA of A/South Carolina/1/18 (H1N1) (Influenza A virus A/South Carolina/1/18 (H1N1)); assay: as above
[21] = target: T6, recombinant soluble homotrimeric HA of …; assay: as above
[22] = target: T7, recombinant soluble homotrimeric HA of …; assay: as above
[23] = target: T8, recombinant soluble homotrimeric HA of …; assay: as above
[24] = target: T9, recombinant soluble homotrimeric HA of …; assay: as above
[25] = target: T10, recombinant soluble homotrimeric HA of …; assay: as above
[26] = target: recombinant homotrimeric HA A/Japan/305/57 H2N2 (Influenza A virus A/Japan/305/1957(H2N2)); assay: protein microarray, purified IgG, trimeric HA
[27] = target: recombinant homotrimeric HA A/Egypt/3300-NAMRU3/08 H5N1 (Influenza A virus A/Egypt/3300-NAMRU3/2008(H5N1)); assay: protein microarray, purified IgG, trimeric HA
[28] = target: recombinant homotrimeric HA A/Hong Kong/156/97 H5N1 (Influenza A virus A/Hong Kong/156/97 (H5N1)); assay: protein microarray, purified IgG, trimeric HA
[29] = target: recombinant homotrimeric HA A/Wisconsin/67/05 H3N2 (Influenza A virus A/Wisconsin/67/2005(H3N2)); assay: protein microarray, purified IgG, trimeric HA
[30] = target: recombinant homotrimeric HA A/South Carolina/1/18 H1N1 (Influenza A virus A/South Carolina/1/18 (H1N1)); assay: protein microarray, purified IgG, trimeric HA
[31] = target: recombinant homotrimeric HA A/Netherlands/219/03 H7N7 (Influenza A virus A/Netherlands/219/03(H7N7)); assay: protein microarray, purified IgG, trimeric HA
[32] = target: recombinant homotrimeric HA A/Hong Kong/2108/03 H9N2 (Influenza A virus A/HK/2108/2003(H9N2)); assay: protein microarray, purified IgG, trimeric HA
[33] = target: recombinant homotrimeric HA A/California/4/09 H1N1 (Influenza A virus A/California/04/2009(H1N1)); assay: protein microarray, purified IgG, trimeric HA
[34] = target: recombinant homotrimeric HA A/Vietnam/1203/04 H5N1 (Influenza A virus A/VietNam/1203/2004(H5N1)); assay: protein microarray, purified IgG, trimeric HA
[35] = target: recombinant homotrimeric HA A/duck/Yangzhou/02/05 H8N4 (Influenza A virus A/duck/Yangzhou/02/2005(H8N4)); assay: protein microarray, purified IgG, trimeric HA
[36] = target: recombinant homotrimeric HA A/Indonesia/5/05 H5N1 (Influenza A virus A/Indonesia/5/2005(H5N1)); assay: protein microarray, purified IgG, trimeric HA
[37] = target: recombinant homotrimeric HA A/chicken/Vietnam/NCVD-016/08 H5N1 (Influenza A virus A/chicken/Vietnam/NCVD-016/2008(H5N1)); assay: protein microarray, purified IgG, trimeric HA

Binder	Trimeric HA Binding: RLU [2]	Trimeric HA Binding: RLU [3]	Trimeric HA Binding: RLU [5]	Trimeric HA Binding: RLU [12]	Trimeric HA Binding: RLU [13]	Trimeric HA Binding: RLU [15]	Trimeric HA Binding: RLU [16]	Trimeric HA Binding: RLU [19]	Trimeric HA Binding: RLU [20]	Trimeric HA Binding: RLU [21]	Trimeric HA Binding: RLU [24]	Trimeric HA Binding: RLU [25]	Trimeric HA Binding: RLU [26]	Trimeric HA Binding: RLU [27]	Trimeric HA Binding: RLU [29]	Trimeric HA Binding: RLU [30]	Trimeric HA Binding: RLU [31]	Trimeric HA Binding: RLU [32]	Trimeric HA Binding: RLU [33]	also measured
TCN-537 (3194_D21) (antibody, V domains shown) VH: QVQLQQWGSGLLKPSETLSLTCAVYGGSFRDDYWTWIRQPPGKGLEWIGEINHSGRTNYNPSLKSRVTISVDTSLKQFSLKVISVTAADTAVYYCARGTSHVSRYFDWLPPTNWFDPWGQGTQVTVSS VL: DIVLTQSPGTLSLSPGERATLSCRASQSVSSSYLAWYQQKPGQAPRLVMYGAATRATGIPDRFSGSGSGPDFTLTISRLEPEDFAMYYCQQYGNSPITFGQGTRLEIK	44700 RLU	8620 RLU	1050 RLU	549 RLU	80 RLU	16200 RLU	4480 RLU	3280 RLU	46800 RLU	25500 RLU	1940 RLU	50300 RLU	19500 RLU	3190 RLU	154 RLU	2840 RLU	729 RLU	171 RLU	10200 RLU	Trimeric HA Binding: RLU [1]: 14900 RLU; Trimeric HA Binding: RLU [4]: 335 RLU; Trimeric HA Binding: RLU [6]: 147 RLU; Trimeric HA Binding: RLU [7]: 5210 RLU; Trimeric HA Binding: RLU [8]: 19 RLU; Trimeric HA Binding: RLU [9]: 7830 RLU; Trimeric HA Binding: RLU [10]: 21900 RLU; Trimeric HA Binding: RLU [11]: 38200 RLU; Trimeric HA Binding: RLU [14]: 2420 RLU; Trimeric HA Binding: RLU [17]: 10700 RLU; Trimeric HA Binding: RLU [18]: 3650 RLU; Trimeric HA Binding: RLU [22]: 33800 RLU; Trimeric HA Binding: RLU [23]: 33500 RLU; Trimeric HA Binding: RLU [28]: 862 RLU; Trimeric HA Binding: RLU [34]: 5690 RLU
TCN-545 (5082_I15) (antibody, V domains shown) VH: QVQLQQWGAGLLKPSETLSLSCAVFGGSFSDYYWTWIRQPPGKGLEWIGEIKHSGRTNYNPSLESRVTISVDTSKNQFSLKLSSVTAADTAIYYCARGTDPDTEGYCRSGSCSAFDFWGQGTLVTVSS VL: EIVLTQSPGTLSLSPGERATLSCRASHFVNYRSLAWYQQTPGQVPRLLIYGASTRATGIPDRFSGSGSGTDFTLTISRLEPEDFAVYFCQQYGGSPRYTFGQGTRLEIK	157 RLU	392 RLU	1180 RLU	575 RLU	235 RLU	1360 RLU	3230 RLU	2940 RLU	900 RLU	13200 RLU	32000 RLU	42900 RLU	1400 RLU	1410 RLU	23700 RLU	289 RLU	1490 RLU	262 RLU	672 RLU	Trimeric HA Binding: RLU [35]: 396 RLU; Trimeric HA Binding: RLU [36]: 193 RLU; Trimeric HA Binding: RLU [37]: 679 RLU
